Test results taken from patent CN115594767A.

Assays:
[1] = target: HER2 (Human epidermal growth factor receptor 2) (human) (UniProt P04626); test: ELISA, HER2 coated at 1 ug/mL, HRP-anti-human IgG Fc detection
CD16A-158V = CD16A-158V (UniProt P08637); test: BLI, CD16A-158V on anti-his probe, antibody as analyte
UniProt P08637, sequence (P08637 17-208 F176V limits assumed): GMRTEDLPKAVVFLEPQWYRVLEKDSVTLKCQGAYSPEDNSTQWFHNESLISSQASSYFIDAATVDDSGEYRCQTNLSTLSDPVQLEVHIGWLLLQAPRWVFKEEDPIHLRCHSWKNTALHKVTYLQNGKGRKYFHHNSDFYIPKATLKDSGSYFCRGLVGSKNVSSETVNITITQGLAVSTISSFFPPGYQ

Substance: MGAH22 (antibody)
- EC50 [1]: 0.127 nM

Substance: KN026 (bispecific antibody)
- Kd (CD16A-158V): 464 nM
- koff (CD16A-158V): 0.0782 s⁻¹
- kon (CD16A-158V): 168000 M⁻¹ s⁻¹
- EC50 [1]: 0.149 nM
